Test system: MS2 coat protein
Test: apparent KD of MS2 coat protein; designed switch direction (-1 OFF switch, 1 ON switch): -1; higher = weaker reporter binding
In short: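 Stalled E. coli RNA polymerase transcribed designed RNA switches on Illumina chips, which were then titrated with SNAP-549-labelled MS2 coat protein, doubling from 0.7 or 1.5 nM to 3 µM. Steps lasted from 0.8–1.5 h at the lowest concentration to 10–20 min at the highest. The apparent KD is each design's median over clusters of curve-fitted normalised fluorescence.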

[1] = Eterna round: R95, input ligand: FMN 200 uM
[2] = Eterna round: R95, input ligand: microRNA oligo, concentration not stated
[3] = Eterna round: R95, input ligand: none
[4] = input ligand: microRNA oligo, concentration not stated

Sequence | apparent KD of MS2 coat protein (input ligand: FMN 200 uM) | apparent KD of MS2 coat protein (input ligand: none) | apparent KD of MS2 coat protein [1] | apparent KD of MS2 coat protein [2] | apparent KD of MS2 coat protein [3] | apparent KD of MS2 coat protein [4]
AAUAAUUGUGACUUGGGCGACAUGAGGAUCACCCAUGUUACAAGCUUGUUGCUCGUCUUAUAAUUAACCCAUGUCAC [LRO Sensor-off var1-23 mod of Stov1-13-A1 by Brourd] (Eterna round: R97, puzzle: Sensor, turn-off variant 1) | 0.0158 µM | 0.0184 µM |  |  |  | 
AAUACAAGCUAUUGAUCCCACAUGAGGAUCACCCAUGUAGCUGGCGGUGACACCUCCUUUACGAUAGCUCGUCUUAU [Sensor-V1 #55] (Eterna round: R97, puzzle: Sensor, turn-off variant 1) | 0.604 µM | 1.2 µM |  |  |  | 
AAUACACAUGAGGAUCACCCAUGUUAGGAUAUGAGCGGGCAGACAGACAGACAGACGAUCAGAAGGAAUAGGAA [Excls1-VI] (puzzle: Exclusion 1) |  |  | 0.0255 µM | 0.0302 µM | 0.0289 µM | 
AAUACACAUGAGGAUCACCCAUGUUAGGAUAUUAGCGGGCAGACAGACAGACAGACGAUGAGAAGGAACAGGAA [Excls1-VII] (puzzle: Exclusion 1) |  |  | 0.0233 µM | 0.0223 µM | 0.0277 µM | 
AAUACUAACACGAAAGUGUUAGUACAAUAAGCUUGUGAAACAUGAGGAUCACCCAUGUCCUCAUAAGCUCGUCUUAA [salish99_TOv2_r3_011] (puzzle: Sensor v3, turn-off variant 2) |  |  | 0.0123 µM | 0.309 µM | 0.0131 µM | 
AAUAGCUAAGGAUAUACAUGAGGAUCACCCAUGUAAAACACUACUUGGAACCGCCUCGGUAGAAGGUAGAAAAU [Arbean] (puzzle: Exclusion 3) |  |  |  | 0.0215 µM |  | 
AAUAUACUAGGAUAUACAUGAGGAUCACCCAUGUCCGCAUAUUGGGAUCUUAGACCUUGUAGAAGGAGUGGACG [Eternabot (L2) Solution 15] (Eterna round: R97, puzzle: Exclusion 3) | 0.0992 µM | 0.0976 µM |  |  |  | 
AAUAUUAGAGGAUAUACAGUUUAUUACAUGAGGAUCACCCAUGUUCUUCAAUGUAUAUAAGUAGAAGGCUAAGGAA [EX-5 Malc#2] (puzzle: Exclusion 5) |  |  | 0.157 µM | 0.0426 µM | 0.0437 µM | 
AAUCAGUGUGUGAGGAUAUUGGUGGAGUGACUUAUUAAGAAGGCACAUGAGGAUCACCCAUGUGGGAAGUCAGG [JR_BMEx4_Sub017] (Eterna round: R97, puzzle: Brourd's mod of Exclusion 4) | 0.0139 µM | 0.0148 µM |  |  |  | 
AAUCCACAUGAGGAUCACCCAUGUCAGGAUAUCUUUGGCCUAACAUGUUAGGACCGUUAGAGAAGGGACACGAU [EX1 B.28] (Eterna round: R97, puzzle: Exclusion 1) | 0.0703 µM | 0.0182 µM |  |  |  | 
AAUCCACAUGAGGAUCACCCAUGUGAGGAUAUGUCCAUAUUCGGCAAAUCGGAUAUGGACAGAAGGCACAUAAA [JR_Exclusion1_Sub013] (Eterna round: R96, puzzle: Exclusion 1) | 0.0995 µM | 0.0265 µM |  |  |  | 0.021 µM
AAUCCACAUGAGGAUCACCCAUGUGAGGAUAUGUCCAUAUUCGGCAAAUCGGAUAUGGACAGAAGGCACAUAAA [JR_Exclusion1_Sub013] (puzzle: Exclusion 1) |  |  |  | 0.0283 µM |  | 
AAUCCUGAAGUUAGGAUAUGAAGUAUCACUACACUUCAGAAGGAACUUGAGGAUCACCCAAGUAGCCGUGAGGC [jl-bmx4.4.63 ViennaUCT mod] (Eterna round: R97, puzzle: Brourd's mod of Exclusion 4) | 0.096 µM | 0.0203 µM |  |  |  | 
AAUCUACAUGUAGGAUAUGCGUGGCGAAGCUAUGCAGAAGGACAUGAGGAUCACCCAUGUUUUAGCGUCUGCGUACAGAUGCGA [Mat - Exclusion NG 1 - Mod of JL - D99] (Eterna round: R96, puzzle: Exclusion NG 1) | 0.269 µM | 0.0272 µM |  |  |  | 0.0244 µM
AAUGAUGAUGUGAGGAUAUACAUAGUUAGACCGUAGUAGAAGGCACAUGAGGAUCACCCAUGUAGAUGUAAGGU [JR_BME4_Sub002] (puzzle: Brourd's mod of Exclusion 4) |  |  | 0.0263 µM | 0.017 µM | 0.0177 µM | 
AAUGAUUGACGAGGAUAUUGUGGUAGAUCACGACGAGAAGGCGUCUGUCACAUGAGGAUCACCCAUGUGAGCUUUGUGGAUAGA [Ex NG1 #73] (Eterna round: R96, puzzle: Exclusion NG 1) | 0.0516 µM | 0.0722 µM |  |  |  | 0.0374 µM
AAUGGGCAAGCAUGAUCCCACAUGAGGAUCACCCAUGUGUUCGUCUUAUAGGCUGCUGAGGCUUUUGCCUCGGUGGC [LRO Sensor-off var1-03 loose mod of D91 from Mat747] (Eterna round: R97, puzzle: Sensor, turn-off variant 1) | 0.85 µM | 1.37 µM |  |  |  | 
AAUUAAACAAGCAGAUCCCACAUGAGGAUCACCCAUGUGCUCGUCUUAUAAGGUACUGUGACGAUAGUCACGGUACC [Mat - Sensor, turn-off var - Eli Mod - D65] (Eterna round: R97, puzzle: Sensor, turn-off variant 1) | 0.0446 µM | 0.0427 µM |  |  |  | 
AAUUAAUAUCAGGAUAUGACGUGCUUCGGCACGUCAGAAGGGAUGACAUGAGGAUCACCCAUGUGAUCAAUUAA [E6/1-A1] (Eterna round: R97, puzzle: Exclusion 6) | 0.105 µM | 0.0286 µM |  |  |  | 
AAUUAAUGUGUGAGGAUAUUGAUGGAAUGACUUAUUAAGAAGGCACAUGAGGAUCACCCAUGUGGGAAGUCACG [JR_BMEx4_Sub015] (Eterna round: R97, puzzle: Brourd's mod of Exclusion 4) | 0.0276 µM | 0.0186 µM |  |  |  | 
AAUUAGCAAGCGAGAUCCCACAUGAGGAUCACCCAUGUGCUCGUCUUAUAAAAGACUGUGACGAAAGUCACGGUCAC [Mat - Sensor, turn-off var - Eli Mod - D26] (Eterna round: R97, puzzle: Sensor, turn-off variant 1) | 0.014 µM | 0.0159 µM |  |  |  | 
AAUUAUAGAGGAUAUACAGAUUAAUACAUGAGGAUCACCCAUGUUCUUCAAUGUAUAUAUGUAGAAGGCUAAGGAA [JR_Ex5_Sub091] (Eterna round: R97, puzzle: Exclusion 5) | 0.181 µM | 0.238 µM |  |  |  | 
AAUUAUUAUUGAGGAUAUCGUAUUGAAACAAUACGAGAAGGCGGGAUAAACAUGAGGAUCACCCAUGUGAGCCUGAUGCUUGUG [Ex NG1 #41] (Eterna round: R96, puzzle: Exclusion NG 1) |  |  |  |  |  | 0.0134 µM
